Values joined by “and” are separate entries in the source; they are usually repeats but may differ in a detail not shown here. Equal entries are not always repeated.
Experiments:
[1] = system: apoE-KO and GrB/apoE-DKO mice; experiment: ApoE-KO model of angiotensin-II-induced AAA (Examples 8-14); format: in vivo, mouse; settings: for survival to 28 days: chronic angII infusion 1000 ng/min/kg
Source text: All animal protocols were approved by the University of British Columbia (UBC) Animal Care Committee. C57B1/6 mice, C57B1/6-ApoE−/− and C57B1/6-GrB−/− mice were obtained from Jackson Laboratories (Bar Harbor, Me.) ([…] et al. 1992. Proc Natl. Acad Sci 89: 4471-4475; HEUSEL et al 1994 Cell 76:977-987). The C57B1/6-ApoE−/− x GrB−/− double knockout (ApoE/GrB-DKO) mice were generated by crossing the C57B1/6-ApoE−/− and C57B1/6-GrB−/− mouse strains. […] The pups were weaned at 3 weeks of age and then maintained on a 12-hour day and night cycle with food and water provided ad libitum.
ALZET™ osmotic pumps (DURECT Corporation, Cupertino, Calif.) are miniature, implantable pumps commonly used for research in mice and rats. These infusion pumps continuously deliver drugs and other test agents at controlled rates from one day to four weeks without the need for external connections or frequent handling. ALZET™ pumps operate by osmotic displacement. An empty reservoir within the core of the pump is filled with the drug solution to be delivered. Due to the presence of a high concentration of salt in a chamber surrounding the reservoir, water enters the pump through its outer surface. This entry of water increases the volume in the salt chamber, causing compression of the flexible reservoir and delivery of the drug solution into the animal.
Mice were weighed immediately before calculating doses, and the mean weight of mice per group was used. Since mice on a regular diet gain 0.5 g of weight per week, the drug dose was calculated based on the projected mid weight of the experiment (so mice were slightly overdosed for the first two weeks and under-dosed for the final two weeks). The dose was calculated based on the pump fill volume, mean pumping rate, and the midpoint weight of the mice to achieve a value of 1.44 mg/kg/day, (equivalent to 1000 ng/min/kg). To ensure accurate filling, pumps were weighed before and after filling, and a value of 1 mg equal to 1 μL was used when assessing fill volume. […] All pumps and solutions were worked with under sterile conditions. […] All test tubes were placed in the incubator at 37° C. for 24 hours prior to implantation.
On day 1, mice were brought into the GEM micro-procedure room Animals were anesthetised with gaseous anaesthetic at a flow rate of 1.5 L per minute of oxygen with 2.5% of isoflurane delivered via a Baines system using a calibrated tabletop anaesthetic machine, administered from a rodent nose cone. Depth of anaesthesia was monitored by toe pinch response and breathing. Eyes were protected using ocular lubricant. The back of the mouse was shaved, and the legs were taped down. The back of the mouse was then sterilized with 70% ethanol, followed by iodine. The mouse was then moved to the surgical table, so that the dissecting microscope could be utilised.
Under sterile conditions, a lateral incision was made below the scapula, and the skin was blunt dissected from the subcutaneous layer, making a hole large enough to fit the minipump. The minipump was inserted with the flow regulator angled towards the head. Incisions were closed with 2-4 dissolving discontinuous sutures. Isoflurane was then shut off, allowing the mouse to breathe pure oxygen, and a dose of buprenorphine was administered for pain relief After 1 hour, when the mice had recovered from anaesthesia, they were moved back to the animal holding room. The mice were monitored daily for the remainder of the experiment.
Blood was collected by cardiac puncture following CO2 euthanization.

[2] = system: C57, apoE-KO and GrB/apoE-DKO mice; experiment: Angiotensin-II infusion aortic dissection model (Example 7); format: in vivo, mouse
Method: Aortic dissections were induced with 28 day infusion of 2000 ng/kg/min angiotensin-II dissolved in saline, or placebo, through an ALZET™ osmotic pump (model 1004). The pumps were implanted into the subcutaneous space in the upper dorsal regions through a small incision site at the back of the neck of the anesthetized mouse, and the incision was closed with dissolving sutures. The mice were euthanized by carbon dioxide inhalation followed by cardiac puncture 28-days post implantation. The thoracic cavity and abdominal cavity were then opened, and the circulation perfused with PBS via a cannula placed in the left ventricle, with fluid drained from a severed right atria. Following PBS perfusion, fresh 10% formalin was perfused in the same manner. The heart, kidneys and entire aorta to the iliac bifurcation was then carefully dissected from the animal, and photographed en masse.
Aortic dissections were defined by blood accumulation between the media and outer aortic wall. Mice that were found dead without any preceding signs of suffering were defined as sudden death.

[3] = system: skin elastin (3H-elastin); experiment: 3H-elastin cleavage assay (skin elastin); format: biochemical
Method: (§1) FIG. 6 Granzyme B degrades elastin in vitro. Granzyme B was incubated with ^3H-elastin for 7 days at room temperature. Elastase was incubated with ^3H-elastin for 2 hours. Supernatants containing the soluble elastin cleavage fragments were collected and counted. Data is represented as fold increase in radioactivity over the control (elastin only). (n=2).
(§2) Tritiated elastin was prepared with the modifications as described in Banda, M. J. and Werb, Z. (1981) Biochem, J. 193: 589-605 and Gordon, S., Werb, Z. and Cohn, Z. A. (1976) in In Vitro Methods in Cell Mediated and Tumor Immunity, eds. Bloom, B. R. and David, J. R. (Academic Press, New York), pages 349-350. 1 mg of skin or aortic elastin was diluted in 1 ml dH2O and pHed to 9.2. 1 mCi NaB3H4 (PerkinElmer™, Waltham Mass.) and 2 mg of […] (Sigma™, St. Louis, Mo.) was added. After 2 hours of incubation, the pH was adjusted to 3.0 and the elastin was incubated for an additional 30 minutes. The elastin was centrifuged for 3 minutes at 5000×g and the pellet was repeatedly washed to remove excess NaB3H4. […] The radioactivity of the soluble, cleaved elastin fragments in the supernatant was counted in Ready Safe Scintillation Fluid (Beckman-Coulter™, Fullerton, Calif.). The radioactivity of the cleaved, soluble elastin fragments was 4.8 times and 2.7 times higher than background for skin and aortic elastin, respectively (FIG. 6).

[4] = system: aortic elastin (3H-elastin); experiment: 3H-elastin cleavage assay (aortic elastin); format: biochemical
Method: as §1, §2

fibronectin = target: T1, fibronectin (Homo sapiens, UniProt P02751); experiment: Western blot for fibronectin on granzyme B-treated SMCs; format: biochemical; settings: SMCs treated with granzyme B for 24 hours
T1 construct: endogenous in cells; host or cells: human coronary artery smooth muscle cells
Method: (§3) Extracellular proteins from SMC cultures were biotinylated and incubated with granzyme B. The supernatant was collected at 2, 4 and 24 hours after treatment, and the entire insoluble extracellular protein preparation collected at 24 hours. Extracellular proteins were visualized by Western blot for biotin. Western blot for beta-actin confirmed that the extracellular protein preparation was devoid of intercellular proteins. Western blots for fibronectin, phosphorylated FAK (p-FAK), and FAK were also performed on lysates of SMC treated with granzyme B. In the collected insoluble proteins, four protein bands between approximately 50-70 kDa and approximately 236 kDa disappeared 24 hours after treatment with granzyme B and cleavage of fragments approximately 25-39 kDa were evident in the matrix at this same time point. Further, the six proteins and/or cleavage fragments ranging in molecular weight from approximately 29-148 kDa were eluted into the supernatant as early as two hours after granzyme B treatment. […]
(§4) To identify extracellular proteins that are cleaved by granzyme B, western blots for fibronectin, collagen, and vitronectin on lysates from untreated and granzyme B-treated SMCs were performed. […] In the supernatants of granzyme B-treated SMCs at 24 hours, a fibronectin cleavage product was detected. […]

vitronectin = experiment: Western blot for vitronectin on granzyme B-treated SMCs; format: biochemical, human; settings: SMCs treated with granzyme B for 24 hours
Method: as §3, §4

collagen IV = experiment: Western blot for collagen on granzyme B-treated SMCs; format: biochemical, human; settings: SMCs treated with granzyme B for 24 hours
Method: as §3, §4

[5] = system: human coronary artery smooth muscle cells (SMC) matrix; experiment: Cleavage of biotinylated SMC extracellular proteins; format: biochemical; settings: supernatant at 2, 4, 24 hours; insoluble matrix at 24 hours
Method: Extracellular proteins from SMC cultures were biotinylated and incubated with granzyme B. The supernatant was collected at 2, 4 and 24 hours after treatment, and the entire insoluble extracellular protein preparation collected at 24 hours. Extracellular proteins were visualized by Western blot for biotin. Western blot for beta-actin confirmed that the extracellular protein preparation was devoid of intercellular proteins. Western blots for fibronectin, phosphorylated FAK (p-FAK), and FAK were also performed on lysates of SMC treated with granzyme B. In the collected insoluble proteins, four protein bands between approximately 50-70 kDa and approximately 236 kDa disappeared 24 hours after treatment with granzyme B and cleavage of fragments approximately 25-39 kDa were evident in the matrix at this same time point. Further, the six proteins and/or cleavage fragments ranging in molecular weight from approximately 29-148 kDa were eluted into the supernatant as early as two hours after granzyme B treatment. To ensure that the SMC extracellular protein preparations used were devoid of intracellular proteins, Western blotting for beta-actin was performed on the collected supernatant and extracellular proteins. Beta-actin was apparent in SMC lysates (positive control) but was absent from matrix and supernatant preparations.

fibrillin-1 = target: T2, fibrillin-1 (Homo sapiens, UniProt P35555); experiment: Fibrillin cleavage on SMC extracellular matrix by Western blot; format: biochemical; settings: Granzyme B (80 nm) on ECM, 24 hours, room temperature
T2 construct: cells were lysed with NH4OH so that the intact extracellular matrix (ECM) remained on the plate; endogenous in cells; host or cells: human coronary artery smooth muscle cells (decellularised ECM)
Method: Human coronary artery smooth muscle cells were cultured to confluency and serum starved for 48 hours at which time cells were lysed with NH4OH so that the intact extracellular matrix (ECM) remained on the plate. Granzyme B (80 nm) was incubated on the ECM for 24 hours at room temperature. Supernatants (containing cleaved ECM) and ECM still attached to the plate were collected and assessed for fibrillin cleavage by Western blot. The arrows in FIG. 7 indicate fibrillin-1 cleavage fragments.

[6] = system: human insoluble aortic (Ao) elastin; experiment: in vitro granzyme B elastin binding assay (aortic elastin); settings: 50, 100, 300 ng granzyme B; 15 μg aortic elastin; PBS, 3 hours, room temperature
Method: (§5) An in vitro granzyme B elastin binding assay was conducted in the following manner. Granzyme B at 50, 100 and 300 ng was incubated with 15 μg of human insoluble skin (Sk) and aortic (Ao) elastin (Elastin Products Company™, Owensville, Mo.) in PBS for three hours at room temperature. The samples were centrifuged at 1000×g at room temperature for three minutes and the insoluble elastin collected in the pellet. The supernatants, which contained unbound granzyme B, were denatured with SDS loading buffer and run on a 10% SDS-PAGE gel. Granzyme B was detected by Western blot. Each gel contained three lanes: a first lane related to a sample containing granzyme B in the absence of elastin; a second lane related to the samples containing granzyme B and human insoluble skin elastin; and a third lane related to the sample containing granzyme B and aortic elastin. […] This phenomenon was dose-dependent and not restricted to the type of elastin used (i.e. skin elastin or aortic elastin).

[7] = system: human insoluble skin (Sk) elastin; experiment: in vitro granzyme B elastin binding assay (skin elastin); settings: 50, 100, 300 ng granzyme B; 15 μg skin elastin; PBS, 3 hours, room temperature
Method: as §5

T1 sequence (P02751 32-2477): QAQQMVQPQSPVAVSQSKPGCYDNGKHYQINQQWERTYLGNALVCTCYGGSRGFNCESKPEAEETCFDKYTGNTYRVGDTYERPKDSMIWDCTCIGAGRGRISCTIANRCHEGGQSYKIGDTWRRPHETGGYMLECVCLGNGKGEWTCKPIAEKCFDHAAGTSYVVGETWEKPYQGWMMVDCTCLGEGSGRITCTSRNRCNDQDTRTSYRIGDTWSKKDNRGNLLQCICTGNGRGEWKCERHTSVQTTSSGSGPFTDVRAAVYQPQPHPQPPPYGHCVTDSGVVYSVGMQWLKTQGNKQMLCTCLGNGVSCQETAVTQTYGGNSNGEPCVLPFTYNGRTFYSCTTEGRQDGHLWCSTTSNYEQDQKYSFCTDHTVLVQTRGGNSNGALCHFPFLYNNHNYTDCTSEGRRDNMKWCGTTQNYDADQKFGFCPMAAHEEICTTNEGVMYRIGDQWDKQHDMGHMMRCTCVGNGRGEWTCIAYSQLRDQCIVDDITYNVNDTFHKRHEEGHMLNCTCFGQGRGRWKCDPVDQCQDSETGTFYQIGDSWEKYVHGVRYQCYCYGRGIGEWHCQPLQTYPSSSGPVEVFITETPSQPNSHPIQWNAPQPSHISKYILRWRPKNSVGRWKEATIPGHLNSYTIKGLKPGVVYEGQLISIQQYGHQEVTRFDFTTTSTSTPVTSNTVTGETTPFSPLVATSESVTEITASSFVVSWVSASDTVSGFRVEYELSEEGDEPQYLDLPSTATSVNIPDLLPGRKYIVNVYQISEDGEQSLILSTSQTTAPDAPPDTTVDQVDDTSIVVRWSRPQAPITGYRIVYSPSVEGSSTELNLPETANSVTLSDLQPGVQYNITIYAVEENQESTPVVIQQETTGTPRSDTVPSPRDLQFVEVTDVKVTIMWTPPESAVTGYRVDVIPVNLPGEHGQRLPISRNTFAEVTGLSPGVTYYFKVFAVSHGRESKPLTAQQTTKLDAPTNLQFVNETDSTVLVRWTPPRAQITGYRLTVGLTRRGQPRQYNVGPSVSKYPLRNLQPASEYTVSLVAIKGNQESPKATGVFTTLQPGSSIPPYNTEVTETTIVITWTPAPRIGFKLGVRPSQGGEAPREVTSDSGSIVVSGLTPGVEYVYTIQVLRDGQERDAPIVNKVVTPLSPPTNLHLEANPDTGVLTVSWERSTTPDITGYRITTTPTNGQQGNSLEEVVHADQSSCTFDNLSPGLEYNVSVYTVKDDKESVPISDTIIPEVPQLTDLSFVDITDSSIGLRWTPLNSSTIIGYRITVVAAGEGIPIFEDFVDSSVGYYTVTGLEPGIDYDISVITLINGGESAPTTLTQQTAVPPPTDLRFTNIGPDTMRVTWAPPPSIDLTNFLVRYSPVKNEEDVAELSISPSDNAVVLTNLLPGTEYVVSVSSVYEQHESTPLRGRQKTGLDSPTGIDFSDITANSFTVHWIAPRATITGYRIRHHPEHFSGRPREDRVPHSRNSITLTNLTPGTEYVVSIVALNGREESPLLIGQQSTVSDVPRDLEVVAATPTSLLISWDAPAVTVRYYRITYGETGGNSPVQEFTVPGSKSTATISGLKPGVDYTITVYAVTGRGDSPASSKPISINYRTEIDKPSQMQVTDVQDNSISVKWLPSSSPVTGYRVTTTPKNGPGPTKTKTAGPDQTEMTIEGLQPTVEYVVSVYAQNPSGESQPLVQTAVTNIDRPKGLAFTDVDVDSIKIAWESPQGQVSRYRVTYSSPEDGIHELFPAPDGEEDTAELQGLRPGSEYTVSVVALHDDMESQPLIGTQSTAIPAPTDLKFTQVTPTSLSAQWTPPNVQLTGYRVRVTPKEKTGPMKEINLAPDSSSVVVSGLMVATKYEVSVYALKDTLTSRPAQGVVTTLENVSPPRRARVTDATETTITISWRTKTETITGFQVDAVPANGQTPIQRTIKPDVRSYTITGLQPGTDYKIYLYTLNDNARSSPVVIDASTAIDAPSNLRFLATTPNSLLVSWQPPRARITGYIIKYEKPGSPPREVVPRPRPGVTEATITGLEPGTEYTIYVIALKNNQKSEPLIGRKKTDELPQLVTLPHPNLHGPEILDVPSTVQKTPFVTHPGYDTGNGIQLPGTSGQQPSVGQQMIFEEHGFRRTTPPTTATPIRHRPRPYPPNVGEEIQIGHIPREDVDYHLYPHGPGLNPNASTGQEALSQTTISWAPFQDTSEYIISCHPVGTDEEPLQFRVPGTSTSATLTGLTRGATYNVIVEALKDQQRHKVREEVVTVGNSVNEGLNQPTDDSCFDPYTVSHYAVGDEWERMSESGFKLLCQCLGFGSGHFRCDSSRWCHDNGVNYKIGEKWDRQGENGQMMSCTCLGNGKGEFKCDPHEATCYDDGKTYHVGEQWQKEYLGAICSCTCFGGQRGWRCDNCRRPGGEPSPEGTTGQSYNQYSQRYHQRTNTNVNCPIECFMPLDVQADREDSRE

“angII: angiotensin II from Sigma, infused by osmotic minipump to induce aneurysm and dissection in mice (DRVYIHPF; Angiotensin-2; UniProt P01019 25-32, looked up)” was tested, and the “medial thickness of thoracic and abdominal aortas versus saline” value ([1]; 28 days, significant only for apoE-KO thoracic samples (p<0.05)) was “trend for medial thickness to increase”, the “survival to 28 days” value ([1]; GrB/apoE-DKO mice (n=15)) was 86.67% and the Weight change ([1]; GrB/apoE-DKO mice surviving to 28 days) was -0.3 g. The “n at 28 days” value ([1]; GrB/apoE-DKO mice, n at 0 days 15) was 13, the “mice with small abdominal aortic aneurysm (AAA)” value ([1]; GrB/apoE-DKO surviving mice, day 28) was 30% and the “survival to 28 days” value ([1]; apoE-KO mice (n=16)) was 56.25% and 53%. For the same substance, the Weight change ([1]; apoE-KO mice surviving to 28 days) was 1.0 g, the “abdominal aortic lumen area versus saline” value ([1]; apoE-KO mice, 28 days, one-way ANOVA/Dunn's, p<0.05) was “statistically significant increase” and the “n at 28 days” value ([1]; apoE-KO mice, n at 0 days 16) was 9. For the same substance, the gross pathological outcome ([1]; apoE-KO surviving mice, day 28) was “developed aortic dissections”, the “percent aortic root lumen covered by plaque” value ([1]; either genotype, angII versus saline, 28 days, p>0.05) was “No significant difference” and the “sudden death before the 28-day time point” value ([2]; apoE-KO mice, 2000 ng/kg/min infusion, four of eight) was 50%. The “mice that developed aortic dissections or succumbed to sudden death” value ([2]; apoE-KO mice, 2000 ng/kg/min, 28 day infusion, seven of eight) was 87.5%, the aortic dissections ([2]; wildtype and GrB/apoE-DKO mice, 2000 ng/kg/min, 28 day infusion) was “none developed aortic dissections” and the sudden death ([2]; wildtype mice, 2000 ng/kg/min, 28 day infusion) was “zero of six”.

For elastase, the “radioactivity increase over background” value ([3]; skin elastin, 25 μg elastase, 2 hours, positive control) was 14.9 fold and the “radioactivity increase over background” value ([4]; aortic elastin, 25 μg elastase, 2 hours, positive control) was 7.7 fold.

In the case of “granzyme B: serine protease; the patent's target enzyme, tested for binding and cleavage of extracellular matrix proteins”, the “fibronectin in SMC lysates (Western blot)” value (fibronectin) is reported as “reduction in the total amount of fibronectin”, the cleavage of vitronectin (vitronectin) is reported as “no cleavage” and the “cleavage of collagen IV” value (collagen IV) is reported as “no cleavage”. The “radioactivity of the cleaved, soluble elastin fragments” value ([3]; skin 3H-elastin 0.15 mg, granzyme B 0.75 μg added 5 times, room temperature, 7 days) was 4.8 times higher than background, the “radioactivity of the cleaved, soluble elastin fragments” value ([4]; aortic 3H-elastin 0.15 mg, granzyme B 0.75 μg added 5 times, room temperature, 7 days) was 2.7 times higher than background and the “cleavage of extracellular proteins (Western blot for biotin)” value [5] was “induced a cleavage of a number of extracellular proteins”. For the same substance, the “fibrillin-1 cleavage (Western blot)” value (fibrillin-1) was “cleaves fibrillin-1”, the “unbound granzyme B band in supernatant (Western blot)” value [6] was “No band appeared” and the “unbound granzyme B band in supernatant (Western blot) versus sample without elastin” value [7] was “dramatically less pronounced”.

Source: patent US9060960B2, “Treatment of dissection, aneurysm, and atherosclerosis using granzyme B inhibitors” (The University of British Columbia, priority 2007, dated 2015)
